Molecular target: the molecule itself
Test: AUC; sedimentation equilibrium, native conditions, non-reducing; peak fraction of Superose-6 further purified by Centricon filtration

B1: mouse recombinant IL-12p35 (rIL-12p35; HBM-p35-Flag-His) (natural protein, UniProt P43431 23-215, looked up)
chain: RVIPVSGPARCLSQSRNLLKTTDDMVKTAREKLKHYSCTAEDIDHEDITRDQTSTLKTCLPLELHKNESCLATRETSSTTRGSCLPPQKTSLMMTLCLGSIYEDLKMYQTEFQAINAALQNHNHQQIILDKGMLVAIDELMQSLNHNGETLRQKPPVGEADPYRVKMKLCILLHAFSTRVVTINRVMGYLSSA
notes: IL-12p35 (Il12a), mouse; cDNA amplified with the printed primers and cloned behind the honeybee melittin (HBM) secretion signal of pMIB; The same construct was obtained as a monomer (~27 kDa, FPLC fractions 29-30) and as a p35−p35 homodimer (~56-57 kDa, fractions 20-21); also called p35−p35; source: purified (Ni-NTA, Centricon filtration, Sephacryl S-200 and Superose-6 FPLC)
stoichiometry N: 2

— article PMC5620058, “IL-12p35 induces expansion of IL-10 and IL-35-expressing regulatory B cells and ameliorates autoimmune disease” (Nature Communications, 2017)
